The source of these data is article PMC4222680, “A Germline Polymorphism of Thymine DNA Glycosylase Induces Genomic Instability and Cellular Transformation”.

For one data set, the target named is TDG WT (human, UniProt Q13569 1-410). Kind of data set: EMSA; 20 mM HEPES pH 7.3, 1 mM EDTA, 10 mM (NH4)2SO4, 1 mM DTT, 0.2% Tween-20, 30 mM KCl; 2 nM DNA, 30 min at room temperature; 6% native PAGE at 4 C. The settings on record: protein: recombinant; tags: N-terminal 6xHis (pET28a); label: 5'-32P on the template oligonucleotide; blunt. A general note: A gel shift assay detects complexes by their altered migration in electrophoresis.
TDG WT, sequence (Q13569 whole entry): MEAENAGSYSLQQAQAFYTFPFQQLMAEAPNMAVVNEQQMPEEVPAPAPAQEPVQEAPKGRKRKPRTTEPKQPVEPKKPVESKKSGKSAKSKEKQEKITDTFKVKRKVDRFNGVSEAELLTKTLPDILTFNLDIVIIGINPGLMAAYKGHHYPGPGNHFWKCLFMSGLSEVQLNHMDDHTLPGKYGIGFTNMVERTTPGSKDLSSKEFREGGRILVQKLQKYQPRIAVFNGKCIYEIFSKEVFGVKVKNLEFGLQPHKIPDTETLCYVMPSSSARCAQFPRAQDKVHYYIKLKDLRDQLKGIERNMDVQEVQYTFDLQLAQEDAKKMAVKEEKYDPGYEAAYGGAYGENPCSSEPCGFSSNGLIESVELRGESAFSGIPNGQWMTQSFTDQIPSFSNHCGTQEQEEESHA

The target of the next data set is TDG G199S (human (rs4135113 variant), UniProt Q13569 1-410, G199S). Described as above. The settings on record: protein: recombinant; tags: N-terminal 6xHis (pET28a); label: 5'-32P on the template oligonucleotide; blunt.
TDG G199S, sequence (Q13569 whole entry G199S): as the sequence (Q13569 whole entry) above, with G199S counted along it

B1: 28-mer 5-FU:A (dsDNA)
DNA 1: CAGCTCTGTACATGAGCAGTGGTGACAC
DNA 2: GTGTCACCACTGCTCAUGTACAGAGCTG
modifications: 5-fluorouracil (X, written U) at position 17 of strand 2, opposite A12 of strand 1
As for B1, the Kd with TDG WT was 77 ± 13 nM; in the data set with TDG G199S, 41 ± 5 nM.

One may read the Kd as the concentration at which binding is half-saturated.
